# Data reported in patent publication US20250197467A1 (BRIGHT PEAK THERAPEUTICS, published 2025).
# Numbering of substitutions follows the chain as printed.
# B1: C316 (ligand)
# chain: MAAEPVEDNSINFVAMKFIDNTLYFIAEDDENLESDSGRVANLVGYFGKLKSKLSIIRNLNDQVLFIDQGNRPLFEDMTDSDARDNAPRTIFIISMYADSQPRGMAVAISVKCEKISTLSAENKIISFKEMNPPDNIKDTKSDIIFFQRSVPGHDNKMQFESSSYEGYFLAAEKERDLFKLILKKEDELGDRSIMFTVQNED
# B2: C316 + Matriptase (ligand)
# chain: B1 chain
# B3: C314 (ligand)
# chain: MAAEPVEDNAINFVAMKFIDNTLYFIAEDDENLESDPLGYFGKLKSKLSIIRNLNDQVLFIDQGNRPLFEDMTDSDARDNAPRTIFIISMYADSQPRGMAVAISVKCEKISTLSAENKIISFKEMNPPDNIKDTKSDIIFFQRSVPGHDNKMQFESSSYEGYFLAAEKERDLFKLILKKEDELGDRSIMFTVQNED
# B4: C315 (ligand)
# chain: B3 chain with A10S
# B5: C322 (ligand)
# chain: MAAEPVEDNSINFVAMKFIDNTLYFIAEDDENLESDSGRVANLVGGSGYFGKLKSKLSIIRNLNDQVLFIDQGNRPLFEDMTDSDARDNAPRTIFIISMYADSQPRGMAVAISVKCEKISTLSAENKIISFKEMNPPDNIKDTKSDIIFFQRSVPGHDNKMQFESSSYEGYFLAAEKERDLFKLILKKEDELGDRSIMFTVQNED
# B6: C326 (ligand)
# chain: MAAEPVEDNSINFVAMKFIDNTLYFIAEDDENLESDRGRRVANPLGLAGSGYFGKLKSKLSIIRNLNDQVLFIDQGNRPLFEDMTDSDARDNAPRTIFIISMYADSQPRGMAVAISVKCEKISTLSAENKIISFKEMNPPDNIKDTKSDIIFFQRSVPGHDNKMQFESSSYEGYFLAAEKERDLFKLILKKEDELGDRSIMFTVQNED
# B7: C324 + MMP9 (ligand)
# chain: YFGKLKSKLSIIRNLNDQVLFIDQGNRPLFEDMTDSDARDNAPRTIFIISMYADSQPRGMAVAISVKCEKISTLSAENKIISFKEMNPPDNIKDTKSDIIFFQRSVPGHDNKMQFESSSYEGYFLAAEKERDLFKLILKKEDELGDRSIMFTVQNED
# B8: C326 + MMP9 (ligand)
# chain: LAGSGYFGKLKSKLSIIRNLNDQVLFIDQGNRPLFEDMTDSDARDNAPRTIFIISMYADSQPRGMAVAISVKCEKISTLSAENKIISFKEMNPPDNIKDTKSDIIFFQRSVPGHDNKMQFESSSYEGYFLAAEKERDLFKLILKKEDELGDRSIMFTVQNED
# B9: C319 (ligand)
# chain: MAAEPVEDNSINFVAMKFIDNTLYFIAEDDENLESDRGRRVANYFGKLKSKLSIIRNLNDQVLFIDQGNRPLFEDMTDSDARDNAPRTIFIISMYADSQPRGMAVAISVKCEKISTLSAENKIISFKEMNPPDNIKDTKSDIIFFQRSVPGHDNKMQFESSSYEGYFLAAEKERDLFKLILKKEDELGDRSIMFTVQNED
# B10: C321 (ligand)
# chain: B9 chain with V41P, A42L, N43G
# B11: C317 (ligand)
# chain: MAAEPVEDNSINFVAMKFIDNTLYFIAEDDENLESDRGRRVANLVGYFGKLKSKLSIIRNLNDQVLFIDQGNRPLFEDMTDSDARDNAPRTIFIISMYADSQPRGMAVAISVKCEKISTLSAENKIISFKEMNPPDNIKDTKSDIIFFQRSVPGHDNKMQFESSSYEGYFLAAEKERDLFKLILKKEDELGDRSIMFTVQNED
# B12: C324 (ligand)
# chain: B11 chain with L44P, V45L
# B13: C325 + MMP9 (ligand)
# chain: LAGGSGYFGKLKSKLSIIRNLNDQVLFIDQGNRPLFEDMTDSDARDNAPRTIFIISMYADSQPRGMAVAISVKCEKISTLSAENKIISFKEMNPPDNIKDTKSDIIFFQRSVPGHDNKMQFESSSYEGYFLAAEKERDLFKLILKKEDELGDRSIMFTVQNED
# B14: C318 + Matriptase (ligand)
# chain: MAAEPVEDNSINFVAMKFIDNTLYFIAEDDENLESDSGRVANYFGKLKSKLSIIRNLNDQVLFIDQGNRPLFEDMTDSDARDNAPRTIFIISMYADSQPRGMAVAISVKCEKISTLSAENKIISFKEMNPPDNIKDTKSDIIFFQRSVPGHDNKMQFESSSYEGYFLAAEKERDLFKLILKKEDELGDRSIMFTVQNED
# B15: C320 (ligand)
# chain: B14 chain with V40P, A41L, N42G
# B16: C318 (ligand)
# chain: B14 chain
# B17: C323 (ligand)
# chain: MAAEPVEDNSINFVAMKFIDNTLYFIAEDDENLESDRGRRVANLVGGSGYFGKLKSKLSIIRNLNDQVLFIDQGNRPLFEDMTDSDARDNAPRTIFIISMYADSQPRGMAVAISVKCEKISTLSAENKIISFKEMNPPDNIKDTKSDIIFFQRSVPGHDNKMQFESSSYEGYFLAAEKERDLFKLILKKEDELGDRSIMFTVQNED
# B18: C325 (ligand)
# chain: B17 chain with V41P, A42L, N43G, V45A
# B19: C173 (ligand)
# chain: YFGKLKSKLSIIRNLNDQVLFIDQGNRPLFEDMTDSDARDNAPRTIFIISMYADSQPRGMAVAISVKCEKISTLSAENKIISFKEMNPPDNIKDTKSDIIFFQRSVPGHDNKMQFESSSYEGYFLAAEKERDLFKLILKKEDELGDRSIMFTVQNEPLGLAGSNIVPVLLGPKLNHVAVELGKNVRLNCSALLNEEDVIYWMFGEENGSDPNIHEEKEMRIMTPEGKWHASKVLRIENIGESNLNVLYNCTVASTGGTDTKSFILVRKADHHHHHH
# B20: C187 (ligand)
# chain: B14 chain with S10C, S37P, G38L, R39G, V40L, N42G
# Target: T1, IL-18 receptor (IL-18Rαβ) on cells (UniProt Q13478 19-541; O95256 20-599, limits assumed)
# T1 sequence (looked up) 1: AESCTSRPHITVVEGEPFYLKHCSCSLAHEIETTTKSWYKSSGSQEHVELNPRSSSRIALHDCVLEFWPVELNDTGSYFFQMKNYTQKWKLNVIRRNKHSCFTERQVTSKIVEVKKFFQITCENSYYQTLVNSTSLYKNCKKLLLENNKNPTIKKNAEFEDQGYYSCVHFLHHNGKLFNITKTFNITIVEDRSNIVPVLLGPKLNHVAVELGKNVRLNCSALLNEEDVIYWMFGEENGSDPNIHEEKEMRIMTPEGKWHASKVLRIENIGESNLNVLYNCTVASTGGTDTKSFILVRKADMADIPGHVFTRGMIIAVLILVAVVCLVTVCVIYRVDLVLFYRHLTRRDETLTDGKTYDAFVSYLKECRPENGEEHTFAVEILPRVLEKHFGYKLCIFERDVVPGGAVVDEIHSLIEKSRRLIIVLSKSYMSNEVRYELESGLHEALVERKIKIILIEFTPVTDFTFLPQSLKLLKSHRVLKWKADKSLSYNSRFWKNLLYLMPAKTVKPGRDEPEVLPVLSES
# T1 sequence (looked up) 2: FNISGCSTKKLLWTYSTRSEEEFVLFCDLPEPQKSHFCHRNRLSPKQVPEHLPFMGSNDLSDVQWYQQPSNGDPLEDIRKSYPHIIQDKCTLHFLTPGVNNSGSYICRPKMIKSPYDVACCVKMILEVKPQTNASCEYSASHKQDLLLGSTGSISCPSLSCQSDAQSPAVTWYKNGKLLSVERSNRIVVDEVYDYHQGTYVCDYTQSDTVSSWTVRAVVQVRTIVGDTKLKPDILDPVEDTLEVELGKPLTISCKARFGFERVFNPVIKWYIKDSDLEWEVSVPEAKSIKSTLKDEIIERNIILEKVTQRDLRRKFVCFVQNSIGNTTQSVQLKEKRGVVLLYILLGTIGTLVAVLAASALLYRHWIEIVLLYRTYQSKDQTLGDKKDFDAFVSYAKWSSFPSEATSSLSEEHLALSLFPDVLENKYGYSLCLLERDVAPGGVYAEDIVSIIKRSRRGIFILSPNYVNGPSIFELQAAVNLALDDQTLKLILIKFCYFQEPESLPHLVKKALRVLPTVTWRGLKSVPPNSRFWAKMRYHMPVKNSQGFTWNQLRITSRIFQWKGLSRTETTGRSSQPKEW
# Assay: cell-based or functional assay
row,Binder,IFNγ release NK-92 assay EC50
1,B1,532 nM
2,B2,366 nM
3,B3,255 nM
4,B4,252 nM
5,B5,205 nM
6,B6,217 nM
7,B7,0.0022 nM
8,B8,0.0514 nM
9,B9,21.3 nM
10,B10,112 nM
11,B11,526 nM
12,B12,51.7 nM
13,B13,0.0467 nM
14,B14,22.1 nM
15,B15,158 nM
16,B16,21.9 nM
17,B17,102 nM
18,B18,201 nM

# Target: T1, IL-18 receptor (IL-18Rαβ) on cells
# Assay: cell-based or functional assay
# Remark: another data set of the same source
row,Binder,Hek Blue reporter assay EC50
1,B3,4 nM
2,B4,3.36 nM
3,B19,0.00013 nM
4,B20,1.24 nM

# Target: T1, IL-18 receptor (IL-18Rαβ) on cells
# Assay: cell-based or functional assay
# Remark: another data set of the same source
Binder,Fold potency loss vs C086,HEK-blue EC50
B20,29400 fold,1240 nM
